Assay results taken from patent US20210355219A1 (HARPOON THERAPEUTICS, published 2021).

The binders below were run against CD40 on purified human B cells (human, UniProt P25942 21-277) (assay: cell-based or functional assay).
CD40 on purified human B cells, sequence (P25942 21-277): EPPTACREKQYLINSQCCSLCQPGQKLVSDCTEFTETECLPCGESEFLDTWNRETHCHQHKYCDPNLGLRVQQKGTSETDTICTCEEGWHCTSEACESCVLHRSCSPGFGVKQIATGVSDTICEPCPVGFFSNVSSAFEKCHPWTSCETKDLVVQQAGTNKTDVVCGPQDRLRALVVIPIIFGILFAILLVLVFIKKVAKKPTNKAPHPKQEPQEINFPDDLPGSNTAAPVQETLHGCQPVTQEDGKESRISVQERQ

Row | Binder | Activity shift, B cell activation [fold] | EC50 (M), B cell activation (percentage of CD86 positive B cells, flow cytometry, 48 hours) [M]
1 | anti-Alb mask070 L040 anti-CD40, C2905, C2764, L040 (-) Protease (bispecific antibody, human IgG1, kappa) heavy: not shown light: EVQLVESGGGLVQPGNSLTLSCAASGFTFSKFGMSWVRQARAASAGQGLEWVSSISGSGRDTLYADSVKGRFTISRDNAKTTLYLQMNSLRPEDTAVYYCTIGGSLSVSSQGTLVTVSSGGGGPQASTGRSGGGGSDIQMTQSPSSVSASVGDRVTITCRASQGIYSWLAWYQQKPGKAPNLLIYTASTLQSGVPSRFSGSGSGTDFTLTISSLQPEDFATYYCQQANIFPLTFGGGTKVEIKRTVAAPSVFIFPPSDEQLKSGTASVVCLLNNFYPREAKVQWKVDNALQSGNSQESVTEQDSKDSTYSLSSTLTLSKADYEKHKVYACEVTHQGLSSPVTKSFNRGEC | 2000 | 
2 | anti-Alb mask070 L040 anti-CD40, C2905, C2764, L040 (+) Protease (antibody) heavy: not shown light: EVQLVESGGGLVQPGNSLTLSCAASGFTFSKFGMSWVRQARAASAGQGLEWVSSISGSGRDTLYADSVKGRFTISRDNAKTTLYLQMNSLRPEDTAVYYCTIGGSLSVSSQGTLVTVSSGGGGPQASTGRSGGGGSDIQMTQSPSSVSASVGDRVTITCRASQGIYSWLAWYQQKPGKAPNLLIYTASTLQSGVPSRFSGSGSGTDFTLTISSLQPEDFATYYCQQANIFPLTFGGGTKVEIKRTVAAPSVFIFPPSDEQLKSGTASVVCLLNNFYPREAKVQWKVDNALQSGNSQESVTEQDSKDSTYSLSSTLTLSKADYEKHKVYACEVTHQGLSSPVTKSFNRGEC | 1 | 1.6e-11

Each binder was assayed against T1, C00703 huCD40::Fc (human) (assay: BLI (Octet); huCD40::Fc immobilized, masked protein at 100 nM in conditioned media; nm shift relative to unmasked control anti-Alb-anti-CD40).
T1 construct: also called human CD40 protein; immobilized huCD40
T1 sequence (chain, as listed by the source limits assumed): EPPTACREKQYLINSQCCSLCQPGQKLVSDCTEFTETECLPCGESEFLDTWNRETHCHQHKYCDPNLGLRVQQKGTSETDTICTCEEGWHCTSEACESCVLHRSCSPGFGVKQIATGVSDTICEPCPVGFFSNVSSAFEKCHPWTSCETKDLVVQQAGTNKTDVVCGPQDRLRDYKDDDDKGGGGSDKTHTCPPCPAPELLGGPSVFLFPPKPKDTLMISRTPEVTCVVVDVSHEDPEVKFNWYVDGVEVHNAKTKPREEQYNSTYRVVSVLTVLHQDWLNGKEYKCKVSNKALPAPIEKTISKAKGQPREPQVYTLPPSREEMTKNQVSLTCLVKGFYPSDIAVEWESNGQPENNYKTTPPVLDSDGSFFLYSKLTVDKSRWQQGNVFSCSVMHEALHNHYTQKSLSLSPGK

Row | Binder | Binding response (% of control)
3 | anti-Alb-CD-2-D07 masked anti-CD40 protein with anti-CD40 heavy chain SEQ ID No. 73 (bispecific antibody, human IgG1, kappa, Built as m2; Signal domain left out; Tested in conditioned media; also called aAlb-CD-2-D07) heavy: not shown light: EVQLVESGGGLVQPGNSLTLSCAASGFTFSKFGMSWVRQARAATAGSGLEWVSSISGSGRDTLYADSVKGRFTISRDNAKTTLYLQMNSLRPEDTAVYYCTIGGSLSVSSQGTLVTVSSGGGGSGGGSGGGGSGGGSDIQMTQSPSSVSASVGDRVTITCRASQGIYSWLAWYQQKPGKAPNLLIYTASTLQSGVPSRFSGSGSGTDFTLTISSLQPEDFATYYCQQANIFPLTFGGGTKVEIKRTVAAPSVFIFPPSDEQLKSGTASVVCLLNNFYPREAKVQWKVDNALQSGNSQESVTEQDSKDSTYSLSSTLTLSKADYEKHKVYACEVTHQGLSSPVTKSFNRGEC | 48 % of control
4 | anti-Alb-CD-2-B07 masked anti-CD40 protein with anti-CD40 heavy chain SEQ ID No. 73 (bispecific antibody, human IgG1, kappa, Built as m2; Signal domain left out; Tested in conditioned media; also called aAlb-CD-2-B07) heavy: not shown light: EVQLVESGGGLVQPGNSLTLSCAASGFTFSKFGMSWVRQAVRPRGTGGLEWVSSISGSGRDTLYADSVKGRFTISRDNAKTTLYLQMNSLRPEDTAVYYCTIGGSLSVSSQGTLVTVSSGGGGSGGGSGGGGSGGGSDIQMTQSPSSVSASVGDRVTITCRASQGIYSWLAWYQQKPGKAPNLLIYTASTLQSGVPSRFSGSGSGTDFTLTISSLQPEDFATYYCQQANIFPLTFGGGTKVEIKRTVAAPSVFIFPPSDEQLKSGTASVVCLLNNFYPREAKVQWKVDNALQSGNSQESVTEQDSKDSTYSLSSTLTLSKADYEKHKVYACEVTHQGLSSPVTKSFNRGEC | 64 % of control
5 | anti-Alb-CD-2-D08 masked anti-CD40 protein with anti-CD40 heavy chain SEQ ID No. 73 (bispecific antibody, human IgG1, kappa, Built as m2; Signal domain left out; Tested in conditioned media; also called aAlb-CD-2-D08) heavy: not shown light: EVQLVESGGGLVQPGNSLTLSCAASGFTFSKFGMSWVRQATSWRHERGLEWVSSISGSGRDTLYADSVKGRFTISRDNAKTTLYLQMNSLRPEDTAVYYCTIGGSLSVSSQGTLVTVSSGGGGSGGGSGGGGSGGGSDIQMTQSPSSVSASVGDRVTITCRASQGIYSWLAWYQQKPGKAPNLLIYTASTLQSGVPSRFSGSGSGTDFTLTISSLQPEDFATYYCQQANIFPLTFGGGTKVEIKRTVAAPSVFIFPPSDEQLKSGTASVVCLLNNFYPREAKVQWKVDNALQSGNSQESVTEQDSKDSTYSLSSTLTLSKADYEKHKVYACEVTHQGLSSPVTKSFNRGEC | 68 % of control
6 | anti-Alb-CD-1-A09 masked anti-CD40 protein with anti-CD40 heavy chain SEQ ID No. 73 (bispecific antibody, human IgG1, kappa, Built as m2; Signal domain left out; Tested in conditioned media; also called aAlb-CD-1-A09) heavy: not shown light: EVQLVESGGGLVQPGNSLTLSCAASGFTFSKFGMSWVRQAPGSQKPGLEWVSSISGSGRDTLYADSVKGRFTISRDNAKTTLYLQMNSLRPEDTAVYYCTIGGSLSVSSQGTLVTVSSGGGGSGGGSGGGGSGGGSDIQMTQSPSSVSASVGDRVTITCRASQGIYSWLAWYQQKPGKAPNLLIYTASTLQSGVPSRFSGSGSGTDFTLTISSLQPEDFATYYCQQANIFPLTFGGGTKVEIKRTVAAPSVFIFPPSDEQLKSGTASVVCLLNNFYPREAKVQWKVDNALQSGNSQESVTEQDSKDSTYSLSSTLTLSKADYEKHKVYACEVTHQGLSSPVTKSFNRGEC | 67 % of control
7 | anti-Alb-CD-2-A10 masked anti-CD40 protein with anti-CD40 heavy chain SEQ ID No. 73 (bispecific antibody, human IgG1, kappa, Built as m2; Signal domain left out; Tested in conditioned media; also called aAlb-CD-2-A10) heavy: not shown light: EVQLVESGGGLVQPGNSLTLSCAASGFTFSKFGMSWVRQAVGTRETSGGLEWVSSISGSGRDTLYADSVKGRFTISRDNAKTTLYLQMNSLRPEDTAVYYCTIGGSLSVSSQGTLVTVSSGGGGSGGGSGGGGSGGGSDIQMTQSPSSVSASVGDRVTITCRASQGIYSWLAWYQQKPGKAPNLLIYTASTLQSGVPSRFSGSGSGTDFTLTISSLQPEDFATYYCQQANIFPLTFGGGTKVEIKRTVAAPSVFIFPPSDEQLKSGTASVVCLLNNFYPREAKVQWKVDNALQSGNSQESVTEQDSKDSTYSLSSTLTLSKADYEKHKVYACEVTHQGLSSPVTKSFNRGEC | 65 % of control
8 | anti-Alb-CD-2-F09 masked anti-CD40 protein with anti-CD40 heavy chain SEQ ID No. 73 (bispecific antibody, human IgG1, kappa, Built as m2; Signal domain left out; Tested in conditioned media; also called aAlb-CD-2-F09) heavy: not shown light: EVQLVESGGGLVQPGNSLTLSCAASGFTFSKFGMSWVRQAPYSQPTKAGLEWVSSISGSGRDTLYADSVKGRFTISRDNAKTTLYLQMNSLRPEDTAVYYCTIGGSLSVSSQGTLVTVSSGGGGSGGGSGGGGSGGGSDIQMTQSPSSVSASVGDRVTITCRASQGIYSWLAWYQQKPGKAPNLLIYTASTLQSGVPSRFSGSGSGTDFTLTISSLQPEDFATYYCQQANIFPLTFGGGTKVEIKRTVAAPSVFIFPPSDEQLKSGTASVVCLLNNFYPREAKVQWKVDNALQSGNSQESVTEQDSKDSTYSLSSTLTLSKADYEKHKVYACEVTHQGLSSPVTKSFNRGEC | 75 % of control
9 | anti-Alb-CD-2-D06 masked anti-CD40 protein with anti-CD40 heavy chain SEQ ID No. 73 (bispecific antibody, human IgG1, kappa, Built as m2; Signal domain left out; Tested in conditioned media; also called aAlb-CD-2-D06) heavy: not shown light: EVQLVESGGGLVQPGNSLTLSCAASGFTFSKFGMSWVRQAMNRHENDRGLEWVSSISGSGRDTLYADSVKGRFTISRDNAKTTLYLQMNSLRPEDTAVYYCTIGGSLSVSSQGTLVTVSSGGGGSGGGSGGGGSGGGSDIQMTQSPSSVSASVGDRVTITCRASQGIYSWLAWYQQKPGKAPNLLIYTASTLQSGVPSRFSGSGSGTDFTLTISSLQPEDFATYYCQQANIFPLTFGGGTKVEIKRTVAAPSVFIFPPSDEQLKSGTASVVCLLNNFYPREAKVQWKVDNALQSGNSQESVTEQDSKDSTYSLSSTLTLSKADYEKHKVYACEVTHQGLSSPVTKSFNRGEC | 42 % of control
10 | anti-Alb-CD-1-F06 masked anti-CD40 protein with anti-CD40 heavy chain SEQ ID No. 73 (bispecific antibody, human IgG1, kappa, Built as m2; Signal domain left out; Tested in conditioned media; also called aAlb-CD-1-F06) heavy: not shown light: EVQLVESGGGLVQPGNSLTLSCAASGFTFSKFGMSWVRQAVRTRRTSGGLEWVSSISGSGRDTLYADSVKGRFTISRDNAKTTLYLQMNSLRPEDTAVYYCTIGGSLSVSSQGTLVTVSSGGGGSGGGSGGGGSGGGSDIQMTQSPSSVSASVGDRVTITCRASQGIYSWLAWYQQKPGKAPNLLIYTASTLQSGVPSRFSGSGSGTDFTLTISSLQPEDFATYYCQQANIFPLTFGGGTKVEIKRTVAAPSVFIFPPSDEQLKSGTASVVCLLNNFYPREAKVQWKVDNALQSGNSQESVTEQDSKDSTYSLSSTLTLSKADYEKHKVYACEVTHQGLSSPVTKSFNRGEC | 57 % of control
11 | anti-Alb-CD-2-F10 masked anti-CD40 protein with anti-CD40 heavy chain SEQ ID No. 73 (bispecific antibody, human IgG1, kappa, Built as m2; Signal domain left out; Tested in conditioned media; also called aAlb-CD-2-F10) heavy: not shown light: EVQLVESGGGLVQPGNSLTLSCAASGFTFSKFGMSWVRQAVGPRETSGGLEWVSSISGSGRDTLYADSVKGRFTISRDNAKTTLYLQMNSLRPEDTAVYYCTIGGSLSVSSQGTLVTVSSGGGGSGGGSGGGGSGGGSDIQMTQSPSSVSASVGDRVTITCRASQGIYSWLAWYQQKPGKAPNLLIYTASTLQSGVPSRFSGSGSGTDFTLTISSLQPEDFATYYCQQANIFPLTFGGGTKVEIKRTVAAPSVFIFPPSDEQLKSGTASVVCLLNNFYPREAKVQWKVDNALQSGNSQESVTEQDSKDSTYSLSSTLTLSKADYEKHKVYACEVTHQGLSSPVTKSFNRGEC | 63 % of control
12 | anti-Alb-CD-2-D09 masked anti-CD40 protein with anti-CD40 heavy chain SEQ ID No. 73 (bispecific antibody, human IgG1, kappa, Built as m2; Signal domain left out; Tested in conditioned media; also called aAlb-CD-2-D09) heavy: not shown light: EVQLVESGGGLVQPGNSLTLSCAASGFTFSKFGMSWVRQAVRTRGTSGGLEWVSSISGSGRDTLYADSVKGRFTISRDNAKTTLYLQMNSLRPEDTAVYYCTIGGSLSVSSQGTLVTVSSGGGGSGGGSGGGGSGGGSDIQMTQSPSSVSASVGDRVTITCRASQGIYSWLAWYQQKPGKAPNLLIYTASTLQSGVPSRFSGSGSGTDFTLTISSLQPEDFATYYCQQANIFPLTFGGGTKVEIKRTVAAPSVFIFPPSDEQLKSGTASVVCLLNNFYPREAKVQWKVDNALQSGNSQESVTEQDSKDSTYSLSSTLTLSKADYEKHKVYACEVTHQGLSSPVTKSFNRGEC | 66 % of control
13 | anti-Alb-CD-2-C11 masked anti-CD40 protein with anti-CD40 heavy chain SEQ ID No. 73 (bispecific antibody, human IgG1, kappa, Built as m2; Signal domain left out; Tested in conditioned media; also called aAlb-CD-2-C11) heavy: not shown light: EVQLVESGGGLVQPGNSLTLSCAASGFTFSKFGMSWVRQALGRRETSVGLEWVSSISGSGRDTLYADSVKGRFTISRDNAKTTLYLQMNSLRPEDTAVYYCTIGGSLSVSSQGTLVTVSSGGGGSGGGSGGGGSGGGSDIQMTQSPSSVSASVGDRVTITCRASQGIYSWLAWYQQKPGKAPNLLIYTASTLQSGVPSRFSGSGSGTDFTLTISSLQPEDFATYYCQQANIFPLTFGGGTKVEIKRTVAAPSVFIFPPSDEQLKSGTASVVCLLNNFYPREAKVQWKVDNALQSGNSQESVTEQDSKDSTYSLSSTLTLSKADYEKHKVYACEVTHQGLSSPVTKSFNRGEC | 63 % of control
14 | anti-Alb-CD-2-C05 masked anti-CD40 protein with anti-CD40 heavy chain SEQ ID No. 73 (bispecific antibody, human IgG1, kappa, Built as m2; Signal domain left out; Tested in conditioned media; also called aAlb-CD-2-C05) heavy: not shown light: EVQLVESGGGLVQPGNSLTLSCAASGFTFSKFGMSWVRQALGRHESSVGLEWVSSISGSGRDTLYADSVKGRFTISRDNAKTTLYLQMNSLRPEDTAVYYCTIGGSLSVSSQGTLVTVSSGGGGSGGGSGGGGSGGGSDIQMTQSPSSVSASVGDRVTITCRASQGIYSWLAWYQQKPGKAPNLLIYTASTLQSGVPSRFSGSGSGTDFTLTISSLQPEDFATYYCQQANIFPLTFGGGTKVEIKRTVAAPSVFIFPPSDEQLKSGTASVVCLLNNFYPREAKVQWKVDNALQSGNSQESVTEQDSKDSTYSLSSTLTLSKADYEKHKVYACEVTHQGLSSPVTKSFNRGEC | 31 % of control
